US9181296B2, “Stabilized liquid enzyme compositions” (NOVOZYMES A/S, priority 2008, dated 2015)

Target: T1, Protease (Savinase 16.0 LEX) (Lederbergia lenta, UniProt P29600)
T1 construct: purchased Novozymes Savinase 16.0 LEX
T1 sequence (P29600 1-269): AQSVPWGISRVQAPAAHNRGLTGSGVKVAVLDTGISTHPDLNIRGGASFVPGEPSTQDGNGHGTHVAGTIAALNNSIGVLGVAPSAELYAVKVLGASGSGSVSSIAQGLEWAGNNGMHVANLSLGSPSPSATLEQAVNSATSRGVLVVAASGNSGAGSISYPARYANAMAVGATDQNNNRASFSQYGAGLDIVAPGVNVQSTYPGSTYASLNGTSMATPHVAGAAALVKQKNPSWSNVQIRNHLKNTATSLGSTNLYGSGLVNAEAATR
Experiment: Storage stability of protease in liquid detergent N with stabilizer (Example 3)
Type: biochemical
Details: 1 week 40° C.
Protocol: Peptide aldehydes Z-GAF-H, Z-GAL-H and Z-GAY-H were produced by peptide synthesis, all with a purity >80%. The peptide aldehydes were dissolved in DMSO to a concentration of 10 mg/ml before use.
The following detergent N with enzymes was prepared:
The following detergents with stabilizer according to the invention were prepared and normalized to 100 g of detergent:
The detergents were placed in closed glasses at 40° C. Residual activity of protease was measured (by comparison to a reference stored at −18° C.) after 1 week, using standard enzyme analytical methods (protease measured by hydrolysis of N,N-dimethylcasein at 40° C., pH 8.3).

Z-GAY-H
Molar surplus of inhibitor relative to protease needed to reach the same residual activities as the other peptide aldehydes (compared with Z-GAL-H and Z-GAF-H in detergent N): approximately half | Efficiency for stabilizing the protease (in words) (detergent N): most efficient
